T1: mIL22RA1-Fc fusion protein (mouse, UniProt Q80XZ4 16-230, limits assumed)
T1 construct: also called mouse IL-22Ra 1; IL-22Rα-1; not shown: Fc part
T1 sequence (looked up): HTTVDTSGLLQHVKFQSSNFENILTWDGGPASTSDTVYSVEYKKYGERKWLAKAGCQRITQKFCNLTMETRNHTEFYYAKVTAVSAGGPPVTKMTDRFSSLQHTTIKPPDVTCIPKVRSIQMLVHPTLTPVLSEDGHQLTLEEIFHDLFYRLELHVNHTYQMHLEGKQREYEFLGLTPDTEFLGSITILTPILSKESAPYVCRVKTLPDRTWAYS

T2: endogenous IL-22 receptor on AsPC-1 cells (UniProt Q8N6P7 16-574, limits assumed)
T2 sequence (looked up): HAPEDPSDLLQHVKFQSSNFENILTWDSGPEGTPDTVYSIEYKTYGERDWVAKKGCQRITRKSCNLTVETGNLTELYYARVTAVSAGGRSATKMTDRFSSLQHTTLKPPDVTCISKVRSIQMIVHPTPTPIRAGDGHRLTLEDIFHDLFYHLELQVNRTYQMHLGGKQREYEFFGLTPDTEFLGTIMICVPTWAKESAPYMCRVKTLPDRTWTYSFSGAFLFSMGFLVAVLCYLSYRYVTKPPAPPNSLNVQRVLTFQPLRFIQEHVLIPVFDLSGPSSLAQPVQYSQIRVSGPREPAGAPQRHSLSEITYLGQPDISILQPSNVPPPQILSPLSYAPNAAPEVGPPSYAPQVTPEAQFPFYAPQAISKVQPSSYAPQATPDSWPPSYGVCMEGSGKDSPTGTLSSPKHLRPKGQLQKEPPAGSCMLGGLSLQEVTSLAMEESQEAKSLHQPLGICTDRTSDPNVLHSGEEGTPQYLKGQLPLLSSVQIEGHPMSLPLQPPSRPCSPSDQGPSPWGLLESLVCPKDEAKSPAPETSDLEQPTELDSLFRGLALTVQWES

B1: hIL-22-anti-HSA A1 (other)
chain: APISSHCRLDKSNFQQPYITNRTFMLAKEASLADNNTDVRLIGEKLFHGVSMSERCYLMKQVLNFTLEEVLFPQSDRFQPYMQEVVPFLARLSNRLSTCHIEGDDLHIQRNVQKLKDTVKKLGESGEIKAIGELDLLFMSLRNACISGGGGSGGGGSGGGGSEVQLVESGGGLVQPGGSLRLSCAASGSTWSINTLAWYRQAPGKQRDLVARISSGGSTYYADSVKGRFTISRDNSKNTLYLQMNSLRAEDTAVYYCYAQSTWYPPSWGQGTLVTVSS
notes: Single-chain fusion of IL-22 and an anti-HSA VHH, expressed in ExpiCHO cells; also called fusion protein A1
B2: mIL-22-anti-HSA A2 (other)
chain: LPVNTRCKLEVSNFQQPYIVNRTFMLAKEASLADNNTDVRLIGEKLFRGVSAKDQCYLMKQVLNFTLEDVLLPQSDRFQPYMQEVVPFLTKLSNQLSSCHISGDDQNIQKNVRRLKETVKKLGESGEIKAIGELDLLFMSLRNACVSGGGGSGGGGSGGGGSEVQLVESGGGLVQPGGSLRLSCAASGSTWSINTLAWYRQAPGKQRDLVARISSGGSTYYADSVKGRFTISRDNSKNTLYLQMNSLRAEDTAVYYCYAQSTWYPPSWGQGTLVTVSS
notes: Single-chain fusion, expressed in ExpiCHO cells; also called fusion protein A2
B3: Anti-HSA-mIL-22 A3 (other)
chain: QVQLVESGGGVVQPGGSLRLSCAASGFAFRGFGMSWVRQAPGKGLEWVSSINNGGSDTYYADSVKGRFTISRDNSKNTLYLQMNSLRAEDTAVYYCAIGGPGASPSGQGTQVTVSSGGGSGGGSGGGSGGGSLPVNTRCKLEVSNFQQPYIVNRTFMLAKEASLADNNTDVRLIGEKLFRGVSAKDQCYLMKQVLNFTLEDVLLPQSDRFQPYMQEVVPFLTKLSNQLSSCHISGDDQNIQKNVRRLKETVKKLGESGEIKAIGELDLLFMSLRNACV
notes: Single-chain fusion, expressed in ExpiCHO cells
B4: mIL-22-anti-HSA A4 (other)
chain: LPVNTRCKLEVSNFQQPYIVNRTFMLAKEASLADNNTDVRLIGEKLFRGVSAKDQCYLMKQVLNFTLEDVLLPQSDRFQPYMQEVVPFLTKLSNQLSSCHISGDDQNIQKNVRRLKETVKKLGESGEIKAIGELDLLFMSLRNACVSGGGGSGGGGSGGGGSQVQLVESGGGVVQPGGSLRLSCAASGFAFRGFGMSWVRQAPGKGLEWVSSINNGGSDTYYADSVKGRFTISRDNSKNTLYLQMNSLRAEDTAVYYCAIGGPGASPSGQGTQVTVSS
notes: as for B3
B5: mIL-22-anti-HSA-mIL-22 A8 (other)
chain: LPVNTRCKLEVSNFQQPYIVNRTFMLAKEASLADNNTDVRLIGEKLFRGVSAKDQCYLMKQVLNFTLEDVLLPQSDRFQPYMQEVVPFLTKLSNQLSSCHISGDDQNIQKNVRRLKETVKKLGESGEIKAIGELDLLFMSLRNACVSGGGGSGGGGSGGGGSEVQLVESGGGLVQPGGSLRLSCAASGSTWSINTLAWYRQAPGKQRDLVARISSGGSTYYADSVKGRFTISRDNSKNTLYLQMNSLRAEDTAVYYCYAQSTWYPPSWGQGTLVTVSSGGGSGGGSGGGSGGGSLPVNTRCKLEVSNFQQPYIVNRTFMLAKEASLADNNTDVRLIGEKLFRGVSAKDQCYLMKQVLNFTLEDVLLPQSDRFQPYMQEVVPFLTKLSNQLSSCHISGDDQNIQKNVRRLKETVKKLGESGEIKAIGELDLLFMSLRNACV
notes: Single-chain fusion with two IL-22 domains, expressed in ExpiCHO cells; also called fusion protein A8
B6: mIL-22-anti-HSA-mIL-22 A9 (other)
chain: LPVNTRCKLEVSNFQQPYIVNRTFMLAKEASLADNNTDVRLIGEKLFRGVSAKDQCYLMKQVLNFTLEDVLLPQSDRFQPYMQEVVPFLTKLSNQLSSCHISGDDQNIQKNVRRLKETVKKLGESGEIKAIGELDLLFMSLRNACVSGGGGSGGGGSGGGGSQVQLVESGGGVVQPGGSLRLSCAASGFAFRGFGMSWVRQAPGKGLEWVSSINNGGSDTYYADSVKGRFTISRDNSKNTLYLQMNSLRAEDTAVYYCAIGGPGASPSGQGTQVTVSSGGGSGGGSGGGSGGGSLPVNTRCKLEVSNFQQPYIVNRTFMLAKEASLADNNTDVRLIGEKLFRGVSAKDQCYLMKQVLNFTLEDVLLPQSDRFQPYMQEVVPFLTKLSNQLSSCHISGDDQNIQKNVRRLKETVKKLGESGEIKAIGELDLLFMSLRNACV
notes: Single-chain fusion with two IL-22 domains, expressed in ExpiCHO cells
B7: mIL-22-hIgG1 Fc B1 (Fc fusion)
chain: LPVNTRCKLEVSNFQQPYIVNRTFMLAKEASLADNNTDVRLIGEKLFRGVSAKDQCYLMKQVLNFTLEDVLLPQSDRFQPYMQEVVPFLTKLSNQLSSCHISGDDQNIQKNVRRLKETVKKLGESGEIKAIGELDLLFMSLRNACVARGPTIKPCPPCKCPAPNLLGGPSVFIFPPKIKDVLMISLSPIVTCVVVDVSEDDPDVQISWFVNNVEVHTAQTQTHREDYNSTLRVVSALPIQHQDWMSGKEFKCKVNNKDLPAPIERTISKPKGSVRAPQVYVLPPPEEEMTKKQVTLTCMVTDFMPEDIYVEWTNNGKTELNYKNTEPVLDSDGSYFMYSKLRVEKKNWVERNSYSCSVVHEGLHNHHTTKSFSRTPGK

What follows are molecules tested against T1, mIL22RA1-Fc fusion protein (assay: BLI (Octet RED96); mIL22RA1-Fc captured on AHC biosensor, fusion protein in solution at 400 nM, global fit).
Method: OCTET® RED96 was used to characterize the interactions of an IL-22 fusion protein with a mouse IL-22Ra 1 (mIL22RA1). Briefly, an mIL22RA1-Fc fusion protein was loaded onto an anti-human IgG Fc capture (AHC) biosensor. The biosensor was then dipped into a solution containing the IL-22 fusion protein at 400 nM. Primary experimental data was analyzed with global fitting to determine a dissociation constant (Kd).
A Kd of 300 nM was found for B1 in this work. A Kd of 61 nM was found for B2 in this work. A Kd of 30 nM was found for B3 in this work. A Kd of 67 nM was found for B4 in this work. A Kd of 1.2 nM was found for B5 in this work. A Kd of 0.77 nM was found for B6 in this work. A Kd of 1.4 nM was found for B7 in this work.

What follows are molecules tested against T2, endogenous IL-22 receptor on AsPC-1 … (assay: cell-based or functional assay).
B1 was tested, and the “EC50 of STAT3 phosphorylation (phospho-STAT3 Tyr705 HTRF) in AsPC-1 cells” value (“EC50 of STAT3 phosphorylation” below) was 800 nM. B2 was tested, and the “EC50 of STAT3 phosphorylation” value was 700 nM. For B3, the “EC50 of STAT3 phosphorylation” value was 500 nM. In the case of B4, the “EC50 of STAT3 phosphorylation” value is reported as 600 nM. B5 was tested, and the “EC50 of STAT3 phosphorylation” value was 500 nM. With B6 the “EC50 of STAT3 phosphorylation” value was 500 nM.

These molecules were tested against endogenous IL-22 receptor on AsPC-1 cells (UniProt Q8N6P7) (assay: cell-based or functional assay).
An EC50 of STAT3 phosphorylation (phospho-STAT3 Tyr705 HTRF) in AsPC-1 cells of 90 nM was found for “recombinant human IL-22 (from UniProt Q9GZX6 34-179) (ligand)” in this work.

— patent US20220033454A1 (ANWITA BIOSCIENCES, published 2022)
